Read-outs that look alike come from different tables or passages of the source.

Consider 9 molecules from patent US20090130131A1.

Test [1] deals with Influenza split vaccine B/Shanghai/361/2002.
The target in test [2] is Influenza split vaccine A/New Caledonia/20/99 (H1N1).
Test [3] has as its target Influenza split vaccine A/New York/55/2004 (H3N2).
For test [4], the target named is Influenza split vaccine A/New Caledonia/20/99 (H1N1). The source holds these as a separate data set.
For test [5] the target is unchanged. The source holds these as a separate data set.

Consider “Synthetic AD vehicle SSF-28 (from UniProt P07988 201-260)”, for which the Coupling Ratio (%) in test [1] was 87.9%; in test [2], 83%; in test [3], 64.4%. For the molecule “Synthetic AD vehicle SSF-30 (from UniProt P07988 220-260)”, the Coupling Ratio (%) in test [4] is 91.3%.

In the case of PVHLKRLLLLLLLLLLLLLLLL [Synthetic AD vehicle SSF-44], the Coupling Ratio (%) in test [5] stood at 72.8%. With RMLPQLVCRLVLRCSMD [Synthetic AD vehicle SSF-24], the Coupling Ratio (%) in test [4] was found to be 91.3%. For the molecule FGIPSSPVHLKRLLILKLLLLKILLLKLGALLIGL [Synthetic AD vehicle SSF-48], in test [5], the Coupling Ratio (%) was 66.3%. As to KLLLLKLLLLKLLLLKLLLL [Synthetic AD vehicle SSF-45], the Coupling Ratio (%) in test [5] is 64.8%. On the same count and under the same terms, in the case of IPCCPVHLKRLKLLLLLLLLILLLILGALLMGL [Synthetic AD vehicle SSF-46] it was 76.2%; in that of GIPFFPVHLKRLKLLLLLLLLILLLILGALLIGL [Synthetic AD vehicle SSF-47], 86.9%. Regarding FPIPLPYCWLCRALIKRIQAMIPKG [Synthetic AD vehicle SSF-14], the Coupling Ratio (%) in test [4] worked out at 57%.
